From IntAct's records for PubMed 24140345

B1: Serine/threonine-protein kinase RIM15 (Saccharomyces cerevisiae), P43565 (parent)
chain: MFNRSNTAGGSQAMKEGLGINKLSPISSNSNPSSLTSSNYEKYLQLATEKNPCMILELELDGKVRYGSPQWNTITGVADDSGSSPTYIADLILGSDQDKGVFQKATDMLLMNDDTSCTITFKIKAADYEGSAGCDDESTITTLEARGILIRDGHTQLPSHTMWIVKPRTNDWSDFYANEDAQDDMVIQLSDNCDDIDIQLPEEFAKTLGFGAKIFVQYLKRIRLEMIIDEFNLPLPKMELCRVCENFVPVWWLETHSQSCVCEHRTESLIQLLHDNLLEQQAILANFTKDSEYKGSQIQVRSNNFLNQVLDSLRELCQDAIDINPSEMVPDLYHSLSTFPQDNGNNNNNNNNNNNNNNALLDQFPIQKDTVSLNSYFQFSPRTNHNIQNVTSWQSRFFLNDDQDPGLALLIHDTLDLARKKVDAVLRLDNAMTYSLKIKNEVNNYVVQLIREQIEINKHAILTHPMNLRSSSIFHSPLPQIHSQQPEAENLIYSSSTPLQVQHDQCASFEAPSKSHLEPIPFPVSSIEETPTANDIRHPSPLPRSCSNTVMKLPTPRRKLDSNGLFSDAYLNADIIPNPSIESTISIDRDNNTNSRGSSMKQYGIGEATDSRTSNSERPSSSSSRLGIRSRSITPRQKIEYSHVDNDDRTNEMLSRDKDSLQPQPSVDTTITSSTQATTTGTKTNSNNSTNSVLPKLMTSISLTPRRGSPSFGNLASHSMQQTNSFKLIHDKSPISSPFTFSKDFLTPEQHPSNIARTDSINNAMLTSPNMPLSPLLLATNQTVKSPTPSIKDYDILKPISKGAYGSVYLARKKLTGDYFAIKVLRKSDMIAKNQVTNVKSERAIMMVQSDKPYVARLFASFQNKDNLFLVMEYLPGGDLATLIKMMGYLPDQWAKQYLTEIVVGVNDMHQNGIIHHDLKPENLLIDNAGHVKLTDFGLSRAGLIRRHKFVPHKSSLSISSTLPIDNPANNFTMNNNNSNHSQLSTPDSFTSDHKQYNRSKKSSLGQQYEHSEYSSTSNSHSMTPTPSTNTVVYPSYYRGKDRSHGSSNIDLPASLRRSESQLSFSLLDISRSSTPPLANPTNSNANNIMRRKSLTENKSFSNDLLSSDAIAATNTNINSNNNISLSPAPSDLALFYPDDSKQNKKFFGTPDYLAPETIEGKGEDNKQCDWWSVGCIFFELLLGYPPFHAETPDAVFKKILSGVIQWPEFKNEEEEREFLTPEAKDLIEKLLVVDPAKRLGAKGIQEIKDHPYFKNVDWDHVYDEEASFVPTIDNPEDTDYFDLRGAELQDFGDDIENDNANILFGKHGINTDVSELSAANLSPPLNHKNILSRKLSMSNTTNRSSNNSNSSVHDFGAHTPVNKLSIASVLESVPQETGYITPNGTGTTTTSAKNSPNLKNLSLAIPPHMRDRRSSKLNDSQTEFGSFNFRNLSALDKANKDAINRLKSEHFSEQPGVHRRTSSASLMGSSSDGSVSTPGSNASNTTSGGKLKIHKPTISGSPSTFGTFPKTFLRSDSFSTRSYSPERSISIDSSTLSRKGSIIGDNQQTTANSSDSPTMTKFKSPLSPANTTTVSSYFSRQRVLSKSFSQRTNSSDLSAEESDRLQAISRVNSLRNRRRSGRKSSSTSEIGYHMDVLVCEPIPIHRYRVTKDLENLGCTVVSVGAGDELVSRATSGVSFDLIMTALKLPKLGAIDIVQLLKQTNGANSTTPIVAITNYFQEAATSRVFDDVLEKPVKLDELKKLVAKYALKKSQEDEEHTILSDSDETH
partner: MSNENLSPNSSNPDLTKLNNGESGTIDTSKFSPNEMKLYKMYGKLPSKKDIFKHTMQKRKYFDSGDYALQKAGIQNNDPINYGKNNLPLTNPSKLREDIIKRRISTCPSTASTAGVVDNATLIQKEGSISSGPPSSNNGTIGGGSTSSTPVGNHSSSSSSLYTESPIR
B2: Serine/threonine-protein kinase RIM15 (Saccharomyces cerevisiae), P43565 (parent)
chain: B1 chain
B3: Serine/threonine-protein kinase RIM15 (Saccharomyces cerevisiae), P43565 (parent)
chain: B1 chain
partner: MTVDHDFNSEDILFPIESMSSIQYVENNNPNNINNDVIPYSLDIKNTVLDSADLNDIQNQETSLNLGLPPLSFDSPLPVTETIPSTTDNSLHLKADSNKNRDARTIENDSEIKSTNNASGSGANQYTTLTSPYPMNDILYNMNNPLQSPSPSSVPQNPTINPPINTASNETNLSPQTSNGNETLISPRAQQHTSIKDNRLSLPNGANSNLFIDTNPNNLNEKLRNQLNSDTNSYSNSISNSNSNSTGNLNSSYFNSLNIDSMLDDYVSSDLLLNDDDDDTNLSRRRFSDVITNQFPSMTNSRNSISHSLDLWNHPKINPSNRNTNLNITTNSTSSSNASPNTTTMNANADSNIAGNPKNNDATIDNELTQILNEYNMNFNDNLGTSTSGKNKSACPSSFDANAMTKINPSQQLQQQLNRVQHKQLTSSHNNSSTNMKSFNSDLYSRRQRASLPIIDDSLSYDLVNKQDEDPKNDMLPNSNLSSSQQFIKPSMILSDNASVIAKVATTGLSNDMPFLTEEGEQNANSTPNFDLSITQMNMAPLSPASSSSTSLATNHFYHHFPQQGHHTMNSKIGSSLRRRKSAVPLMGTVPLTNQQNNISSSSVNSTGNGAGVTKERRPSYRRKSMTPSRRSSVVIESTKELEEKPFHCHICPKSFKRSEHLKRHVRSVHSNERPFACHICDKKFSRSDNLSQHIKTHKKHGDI

Variants of: B1
Details: with igo1_yeast IGO1, P53897

Row | effect of a mutation on the interaction | Variant
1 | disrupting interaction | K823Y;C1176Y

Variants of: B2
Details: with hsf_yeast HSF1, P10961
hsf_yeast HSF1, P10961, sequence (P10961 whole entry): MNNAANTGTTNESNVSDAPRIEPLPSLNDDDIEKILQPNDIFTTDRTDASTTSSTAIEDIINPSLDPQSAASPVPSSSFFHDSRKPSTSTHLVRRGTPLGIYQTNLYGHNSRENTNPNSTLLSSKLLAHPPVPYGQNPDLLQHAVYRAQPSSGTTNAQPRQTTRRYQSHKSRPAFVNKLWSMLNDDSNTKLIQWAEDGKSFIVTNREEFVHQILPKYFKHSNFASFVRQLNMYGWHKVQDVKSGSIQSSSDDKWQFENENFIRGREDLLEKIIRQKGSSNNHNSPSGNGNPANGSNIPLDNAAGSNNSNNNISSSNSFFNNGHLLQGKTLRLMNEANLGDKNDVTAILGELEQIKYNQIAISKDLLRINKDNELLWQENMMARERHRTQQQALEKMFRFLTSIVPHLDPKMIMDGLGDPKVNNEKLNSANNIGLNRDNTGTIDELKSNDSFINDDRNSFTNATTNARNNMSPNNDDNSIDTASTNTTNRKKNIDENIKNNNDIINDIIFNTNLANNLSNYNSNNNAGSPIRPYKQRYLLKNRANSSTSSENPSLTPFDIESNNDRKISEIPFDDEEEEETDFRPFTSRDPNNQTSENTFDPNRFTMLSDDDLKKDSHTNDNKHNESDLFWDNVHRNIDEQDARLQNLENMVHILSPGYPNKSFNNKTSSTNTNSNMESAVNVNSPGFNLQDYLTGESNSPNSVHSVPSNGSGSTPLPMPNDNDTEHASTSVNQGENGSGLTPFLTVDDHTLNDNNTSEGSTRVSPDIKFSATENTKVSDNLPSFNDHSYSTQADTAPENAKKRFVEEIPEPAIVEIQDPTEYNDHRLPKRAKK

Row | effect of a mutation on the interaction | Variant
2 | disrupting interaction | K823Y;C1176Y

Variants of: B3
Details: with msn2_yeast MSN2, P33748

Row | effect of a mutation on the interaction | Variant
3 | disrupting interaction | K823Y;C1176Y
